Measurements from publication PMC10869706, “Chp1 is a dedicated chaperone at the ribosome that safeguards eEF1A biogenesis” (Nature Communications, 2024).

B1: Chp1 (in yeast cells expressing V5-eEF1A) [yeast (S. cerevisiae)] / WT eEF1A (V5-TEF2) [yeast (S. cerevisiae)] (parent complex)
chain 1: MSTFNAETADNLEDIEKQFAVVAVEQAETYWKLLTSVPGSKLRLTKFDDEIYENFMERFPEYKDVERVKKFTEEELKTKEAKERWRKFFTIFEKKIEDYNFGTLLRTDASAEYGQFTTCFVVRLQFYAFEIARNKHGLNDWIVGQK
chain 2: MGKEKSHINVVVIGHVDSGKSTTTGHLIYKCGGIDKRTIEKFEKEAAELGKGSFKYAWVLDKLKAERERGITIDIALWKFETPKYQVTVIDAPGHRDFIKNMITGTSQADCAILIIAGGVGEFEAGISKDGQTREHALLAFTLGVRQLIVAVNKMDSVKWDESRFQEIVKETSNFIKKVGYNPKTVPFVPISGWNGDNMIEATTNAPWYKGWEKETKAGVVKGKTLLEAIDAIEQPSRPTDKPLRLPLQDVYKIGGIGTVPVGRVETGVIKPGMVVTFAPAGVTTEVKSVEMHHEQLEQGVPGDNVGFNVKNVSVKEIRRGNVCGDAKNDPPKGCASFNATVIVLNHPGQISAGYSPVLDCHTAHIACRFDELLEKNDRRSGKKLEDHPKFLKSGDAALVKFVPSKPMCVEAFSEYPPLGRFAVRDMRQTVAVGVIKSVDKTEKAAKVTKAAQKAAKK

Variants of: B1
Experiment: co-IP (IP α-V5, blot α-Chp1), quantified; parent: 1; read off a plot

Question: For chain 2 MGKEKSHINVVVIGHVDSGKSTTTGHLIYKCGGIDKRTIEKFEKEAAELGKGSFKYAWVLDKLKAERERGITIDIALWKFETPKYQVTVIDAPGHRDFIKNMITGTSQADCAILIIAGGVGEFEEGISKDGQTREHALLAFTLGVRQLIVAVNKMDSVKWDESRFQEIVKETSNFIKKVGYNPKTVPFVPISGWNGDNMIEATTNAPWYKGWEKETKAGVVKGKTLLEAIDAIEQPSRPTDKPLRLPLQDVYKIGGIGTVPVGRVETGVIKPGMVVTFAPAGVTTEVKSVEMHHEQLEQGVPGDNVGFNVKNVSVKEIRRGNVCGDAKNDPPKGCASFNATVIVLNHPGQISAGYSPVLDCHTAHIACRFDELLEKNDRRSGKKLEDHPKFLKSGDAALVKFVPSKPMCVEAFSEYPPLGRFAVRDMRQTVAVGVIKSVDKTEKAAKVTKAAQKAAKK [chain 2 A125E], which ratio to parent is on record?
Answer: ~0.5

Question: How did the ratio to parent turn out when chain 2 MGKEKSHINVVVIGHVDSGKSTTTGHLIYKCGGIDKRTIEKFEKEAAELGKGSFKYAWVLDKLKAERERGITIDIALWKFETPKYQVTVIDAPGHRDFIKNMITGTSQADCAILIIAGGVGEFEAGISKDGQTREHALLAFTLGVRQLIVAVNKMDSVKWDESRFQEIVKETSNFIKKVGYNPKTVPFVPISGWNGDNMIEATTNAPWYKGWEKETKAGVVKGKTLLEAIDAIEQPSRPTDKPLRLPLQDVYKIGGIGTVPVGWVETGVIKPGMVVTFAPAGVTTEVKSVEMHHEQLEQGVPGDNVGFNVKNVSVKEIRRGNVCGDAKNDPPKGCASFNATVIVLNHPGQISAGYSPVLDCHTAHIACRFDELLEKNDRRSGKKLEDHPKFLKSGDAALVKFVPSKPMCVEAFSEYPPLGRFAVRDMRQTVAVGVIKSVDKTEKAAKVTKAAQKAAKK [chain 2 R264W] was run?
Answer: ~0.3

Question: With chain 2 MGKEKSHINVVVIGHVDSGKSTTTGHLIYKCGGIDKRTIEKFEKEAAELGKGSFKYAWVLDKLKAERERSITIDIALWKFETPKYQVTVIDAPGHRDFIKNMITGTSQADCAILIIAGGVGEFEAGISKDGQTREHALLAFTLGVRQLIVAVNKMDSVKWDESRFQEIVKETSNFIKKVGYNPKTVPFVPISGWNGDNMIEATTNAPWYKGWEKETKAGVVKGKTLLEAIDAIEQPSRPTDKPLRLPLQDVYKIGGIGTVPVGRVETGVIKPGMVVTFAPAGVTTEVKSVEMHHEQLEQGVPGDNVGFNVKNVSVKEIRRGNVCGDAKNDPPKGCASFNATVIVLNHPGQISAGYSPVLDCHTAHIACRFDELLEKNDRRSGKKLEDHPKFLKSGDAALVKFVPSKPMCVEAFSEYPPLGRFAVRDMRQTVAVGVIKSVDKTEKAAKVTKAAQKAAKK [chain 2 G70S] as the variant, how does the ratio to parent read?
Answer: ~0.25

Question: How did the ratio to parent turn out when chain 2 MGKEKSHINVVVIGHVDSGKSTTTGHLIYKCGGIDKRTIEKFEKEAAELGKGSFKYAWVLDKLKAERERGITIDIALWKFETPKYQVTVIDAPGHRDFIKNMITGTSQADCAILIIAGGVGEFEAGISKDGQTREHALLAFTLGVRQLIVAVNKMDSVKWDESRFQEIVKETSNFIKKVGYNPKTVPFVPISGWNGDNMIEATTNAPWYKGWEKETKAGVVKGKTLLEAIDAIEQPSRPTDKPLRLPLQDVYKIGGIGTVPVGRVETGVIKPGMVVTFAPAGVTTEVKSVEMHHEQLEQGVPGDNVGFNVKNVSVKEIRRGNVCGDAKNDPPKGCASFNATVIVLNHPGQISAGYSPVLDCHTAHIACRFDELLEKNDRRSGKKLEDHPKFLKSGDAALVKFVPSKPMCVEAFSEYPPLGCFAVRDMRQTVAVGVIKSVDKTEKAAKVTKAAQKAAKK [chain 2 R421C] was run?
Answer: ~1.2

Question: Which ratio to parent does the source give for chain 2 MGKEKSHINVVVIGHVDSGKSTTTGHLIYKCGGIDKRTIEKFEKEAAELGKGSFKYAWVLDKLKAERERGITIDIALWKFETPKYQVTVINAPGHRDFIKNMITGTSQADCAILIIAGGVGEFEAGISKDGQTREHALLAFTLGVRQLIVAVNKMDSVKWDESRFQEIVKETSNFIKKVGYNPKTVPFVPISGWNGDNMIEATTNAPWYKGWEKETKAGVVKGKTLLEAIDAIEQPSRPTDKPLRLPLQDVYKIGGIGTVPVGRVETGVIKPGMVVTFAPAGVTTEVKSVEMHHEQLEQGVPGDNVGFNVKNVSVKEIRRGNVCGDAKNDPPKGCASFNATVIVLNHPGQISAGYSPVLDCHTAHIACRFDELLEKNDRRSGKKLEDHPKFLKSGDAALVKFVPSKPMCVEAFSEYPPLGRFAVRDMRQTVAVGVIKSVDKTEKAAKVTKAAQKAAKK [chain 2 D91N] here?
Answer: ~0.45

Question: How did the ratio to parent turn out when chain 2 MGKEKSHINVVVIGHVDSGKSTTTGHLIYKCGGIDKRTIEKFEKEAAELGKGSFKYAWVLDKLKAERERGITIDIALWKFETPKYQVTVIDAPGHRDFIKNMITGTSQADCAILIIAGGVGEFEAGISKDGQTREHALLAFTLGVRQLIVAVNKMDSVKWDESRFQEIVKETSNFIKKVGYNPKTVPFVPISGWNGDNMIEATTNAPWYKGWEKETKAGVVKGKTLLEAIDAIEQPSRPTDKPLRLPLQDVYKIGGIGTVPVGRVETGVIKPGMVVTFAPAGVTTEVKSVEMHHEQLEQGVPGDNVGFNVKNVSVKEIRRGNVCGDAKNDLPKGCASFNATVIVLNHPGQISAGYSPVLDCHTAHIACRFDELLEKNDRRSGKKLEDHPKFLKSGDAALVKFVPSKPMCVEAFSEYPPLGRFAVRDMRQTVAVGVIKSVDKTEKAAKVTKAAQKAAKK [chain 2 P331L] was run?
Answer: ~2.4

Question: For chain 2 MGKEKSHINVVVIGHVDSGKSTTTGHLIYKCGGIDKRTIEKFEKEAAELGKGSFKYAWVLDKLKAERERGITIDIALWKFETPKYQVTVIDAPGHRDFIKNMITGTSQADCAILIIAGGVGEFEAGISKDGQTREHALLAFTLGVRQLIVAVNKMDSVKWDESRFQEIVKETSNFIKKVGYNPKTVPFVPISGWNGDNMIEATTNAPWYKGWEKETKAGVVKGKTLLEAIDAIEQPSRPTDKPLRLPLQDVYKIGGIGTVPVGRVETGVIKPGMVVTFAPAGVTTEVKSVEMHHEQLEQGVPGDNVGFNVKNVSVKEIRRGNVCGDAKNDPPKGCASFNATVIVLNHPGQISAGYSPVLDCHTAHIACRFDELLEKNDRRSRKKLEDHPKFLKSGDAALVKFVPSKPMCVEAFSEYPPLGRFAVRDMRQTVAVGVIKSVDKTEKAAKVTKAAQKAAKK [chain 2 G382R], which ratio to parent is on record?
Answer: ~0.5
